The target in this assay is CsgB-His (curli nucleator CsgB with C-terminal poly-histidine tag) (E. coli) (UniProt P0ABK7).
Chain of UniProt P0ABK7 (P0ABK7 22-151): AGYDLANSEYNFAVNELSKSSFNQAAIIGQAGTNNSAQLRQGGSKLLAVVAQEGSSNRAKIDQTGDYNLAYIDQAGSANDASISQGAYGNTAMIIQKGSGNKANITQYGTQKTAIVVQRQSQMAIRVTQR

As to CsgA R5 subunit domain peptide, the ThT assay: reduction of tau50 of R5 fibril formation in the presence of CB-origami came to 1.5 h.

(Values after PMC6437208.)
